Assay results published in US10487337B2, “Methods for monocot plant improvement” (Agresearch Limited, priority 2014, dated 2019).

Columns and labels:
NINJA = target: T1, NINJA (Arabidopsis thaliana, UniProt Q9SV55); experiment: BiFC interaction with NINJA in Nicotiana benthamiana leaves; format: cell-based; settings: in plants (FIG. 8)
T1 construct: expressed in transfected cells; host or cells: Nicotiana benthamiana leaves (Agrobacterium infiltration)
Description: The binary BiFC-Gateway YFP vectors pDEST-VYNE(R)^GW (Venus aa 1-173) and pDEST-VYCE(R)^GW (Venus aa 156-239) with N-terminal fusions, were used to construct the following vectors; pDESTnYFP-BZR1, pDESTnYFP-NINJA, pDESTnYFP-PPD1, pDESTcYFP-BZR1, pDESTcYFP-PPD1, pDESTcYFP-PPD1Δppd, pDESTcYFP-PPD1Δtify and pDESTcYFP-PPD1Δjas*. For transient in planta expression of proteins interacting with PPD1 or BZR, NINJA and TPL were Gateway® sub-cloned into pRSh1, to construct pRSh1-NINJA and pRSh1-TPL. […] When expressed these constructs produced proteins listed in sequences 60, 62, 70 71 72 73 74 75 76 77 78 79: including TOPLESS (TPL), NINJA, Bimolecular Fluorescence (BiFC) nYFP, BiFC cYFP, BiFC nYFP-NINJA, BiFC nYFP-BZR1, BiFC cYFP-PPD1, BiFC cYFP-NINJA, BiFC cYFP-BZR1, BiFC cYFP-PPD1-ppd, BiFC cYFP-PPD1-tify, BiFC cYFP-PPD1-jas*.
Transient BiFC experiments were performed using combinations of pDESTnYFP and pDESTcYFP plasmids, with or without plasmids for the expression of NINJA (pRSh1-NINJA) or TPL (pRSh1-TPL) and Agrobacterium-infiltration of Nicotiana benthamiana leaves. […] Two hours prior to sampling for microscopic fluorescence observations leaves were infiltrated with a 1 μg/ml DAPI solution to stain nuclei. YFP fluorescence and DAPI staining was detected using an Olympus Fluoview FV10i confocal laser scanning microscope. […]

ryegrass plants = experiment: Root biomass analysis of grass transformants; format: in vivo; settings: root growth beyond the grow bag, approximately 6 weeks
Description: (§1) An equal number (typically 4-10) of tillers were taken from WT and ryegrass plants transformed with Arabidopsis PPD under one of three root promoters. Tillers were planted into plastic grow bags containing potting mix and pruned to be of equal height. […] The increase in root biomass was quantified removing the attached above ground portion (leaves and shoots) and drying the roots at 65° C. for 48 hr then weighing the dry weights (Tables 3 and 4)
as §1, with “a constitutive promoter.” for “one of three root promoters.”, “(Table 5).” for “(Tables 3 and 4)”

Arabidopsis Δppd mutant = experiment: Complementation of the Arabidopsis Δppd mutant leaf phenotype; format: in vivo; settings: CaMV35s promoter, Arabidopsis thaliana ecotype Landsberg erecta, FIG. 13
Description: The functionality of any PEAPOD sequence can be confirmed by complementation of the Arabidopsis Δppd mutant leaf phenotype. Complementation of the Arabidopsis Δppd mutant leaf phenotype was first used to identify the Arabidopsis PPD gene (White 2006). This was seen by a restoration of the wild type flattened leaf phenotype and normal rosette shape as opposed to the domed leaf and the twisting of the rosette to a “propeller” phenotype.
Arabidopsis thaliana (L.) Heynh ecotype Ler can be used as wild-type (WT). The Δppd loss of function deletion mutant (with PPD1 and PPD2 deleted) is as previously described in White 2006, PNAS 103, 13238-13243.
Plants are grown in a temperature-controlled glasshouse at a continuous 21° C. or in a controlled environment cabinet at 23° C. in 16-h light_8-h dark cycles.
Constructs above can be transformed into Arabidopsis by the floral dip infiltration method (Clough and Bent, 1998, Plant J 16, 735-43). The Δppd line is transformed to express the PPD polypeptides by standard techniques. Transgenic plants are confirmed by standard PCR analysis techniques with a combination of transgene-specific and T-DNA primers.
Complementation of the Δppd line to produce a wild-type leaf and rosette phenotype in T1 seedlings (the off-spring of the infiltrated plant) confirms PEAPOD functionality of the introduced gene, which can be shown in photographs.

T1 sequence (Q9SV55 with tags, fused parts or gaps): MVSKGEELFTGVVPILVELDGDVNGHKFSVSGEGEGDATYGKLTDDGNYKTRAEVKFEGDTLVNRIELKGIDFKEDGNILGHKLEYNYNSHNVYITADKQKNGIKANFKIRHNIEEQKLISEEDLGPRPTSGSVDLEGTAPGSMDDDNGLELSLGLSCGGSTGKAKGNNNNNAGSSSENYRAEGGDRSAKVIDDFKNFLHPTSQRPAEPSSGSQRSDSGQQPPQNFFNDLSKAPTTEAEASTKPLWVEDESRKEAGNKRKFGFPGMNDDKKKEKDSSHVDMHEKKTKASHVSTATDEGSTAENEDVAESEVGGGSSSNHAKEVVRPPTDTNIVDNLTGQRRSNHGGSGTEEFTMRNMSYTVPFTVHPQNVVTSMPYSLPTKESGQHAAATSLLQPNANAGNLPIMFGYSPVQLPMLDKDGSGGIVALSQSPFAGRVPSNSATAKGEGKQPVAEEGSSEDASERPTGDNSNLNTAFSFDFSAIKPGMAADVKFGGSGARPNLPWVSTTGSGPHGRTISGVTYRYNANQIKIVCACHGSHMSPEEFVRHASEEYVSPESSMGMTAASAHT

B1: PPD1: PEAPOD 1 protein of Arabidopsis thaliana, SEQ ID NO: 1 (protein, listed as Arabidopsis thaliana)
chain: MDVGVSPAKSILAKPLKLLTEEDISQLTREDCRKFLKDKGMRRPSWNKSQAIQQVLSLKALYEPGDDSGAGIFRKILVSQPVNPPRVTTTLIEPSNELEACGRVSYPEDNGACHRMDSPRSAEFSGGSGHFVSEKDGHKTTISPRSPAETSELVGQMTIFYSGKVNVYDGIPPEKARSIMHFAANPIDLPENGIFASSRMISKLISKEKMMELPQKGLEKANSSRDSGMEGQANRKVSLQRYREKRKDRKFSKAKKCPGVASSSLEMFLNCQPRMKAAYSQNLGCTGSPLHSQSPESQTKSPNLSVDLNSEGI
What does the source list for B1?
interaction with NINJA (NINJA): interacted with NINJA in plants; root biomass/growth/length/branching compared to WT plants (ryegrass plants; constitutive promoter): increase in root biomass/growth/length/branching; root biomass/growth/length/branching compared to WT plants (ryegrass plants; root promoter): increase in root biomass/growth/length/branching; PEAPOD functionality by complementation of the Δppd deletion mutant (Arabidopsis Δppd mutant): functionally equivalent
